Results taken from the supplement of paper PMC9732359.
± gives the uncertainty stated by the source.

Test: protein stability index of a GFP-peptide fusion (yeast GPS) (PSI 1-4); higher = more stable; sorted into four equal gates, so the index is relative within each strain
In short: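 For each peptide, the protein stability index sums the read frequency in every gate after multiplying it by the gate number. Read frequencies came from plasmids that were PCR-amplified from each gate and Illumina-sequenced, with reads assigned to strains by barcodes. The gates were four equal bins of GFP/Cherry fluorescence ratio applied to mid-log yeast in leucine-free medium carrying a pooled library of tiled 17-residue yeast protein peptides fused downstream of GFP on a Cherry-expressing plasmid.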

Sequence	protein stability index (doa10∆)	protein stability index (pdr5∆)	protein stability index (san1∆)	protein stability index (ubr1∆)
NAIFLSSEQDYSTLKEL [YCG1]	2.61 ± 0.078	2.6 ± 0.11	2.18 ± 0.18	2.81 ± 0.094
TIVLSLNVKCTRNPDAP [RPC40]	1.66 ± 0.091	2.14 ± 0.18	2.91 ± 0.13	
VGGCKDQIEKLREVVEL [RPT1]	3.37 ± 0.071	3.4 ± 0.063	3.4 ± 0.048	3.33 ± 0.061
EQGIELEHIDSKSEFAH [FAS2]	2.88 ± 0.096	2.15 ± 0.12	3.08 ± 0.13	2.15 ± 0.16
FYKLNMPDEFNTLYTAI [SRP72]	2.5 ± 0.05	2.64 ± 0.053	2.66 ± 0.034	2.65 ± 0.043
VVVVLEEPSASIMVELK [SIR3]	2.95 ± 0.083	2.99 ± 0.16	3.28 ± 0.065	2.86 ± 0.2
ELVRLLIIDEIHLLHDD [BRR2]	2.17 ± 0.11	1.63 ± 0.075	1.5 ± 0.1	1.97 ± 0.063
FVQLCEMGYLIQISKLH [RPC82]	1.74 ± 0.05	1.95 ± 0.064	1.77 ± 0.1	1.96 ± 0.058
GELRDYIEDFLLVIGGN [YJR042W/NUP85]	2.23 ± 0.075	2.38 ± 0.065	2.65 ± 0.08	1.74 ± 0.037
KPFLKGLVNHRVGVKLK [SMX3]	2.76 ± 0.042	2.21 ± 0.041	2.07 ± 0.052	1.78 ± 0.031
FNSVKSFDEWFNTPFAN [SNF2]	2.9 ± 0.091	3.14 ± 0.082	3.43 ± 0.085	3.26 ± 0.11
QGMEGTVDLALFGSPPF [YMR129W/POM152]	3.39 ± 0.079	3.41 ± 0.068	3.35 ± 0.076	3.21 ± 0.047
TEHLTELSDNEENFEAT [YCG1]	2.87 ± 0.14	3.15 ± 0.16	3.54 ± 0.099	2.96 ± 0.12
RSNKIKVVKTPGGILRA [RPL34A]	2.64 ± 0.068	2.12 ± 0.047	2.49 ± 0.064	2.2 ± 0.041
SSVNEDTFLPPPPPPPS [PRP8]	2.73 ± 0.041	2.72 ± 0.04	2.44 ± 0.038	2.46 ± 0.037
RGVTKVGFGESNFTSII [SMC1]	3.56 ± 0.19	3.33 ± 0.11	3.09 ± 0.15	3.08 ± 0.08
DIDVTIVSKEYEKNFEA [ESC2]	3.27 ± 0.15	3.06 ± 0.14	3.24 ± 0.088	3.42 ± 0.16
DTFELIKTFLVDLTSSN [YDL116W/NUP84]	2.69 ± 0.07	3.19 ± 0.073	2.55 ± 0.08	3.1 ± 0.046
IVDFTLPPPPPPPGLDE [PRP8]	3.15 ± 0.05	3.1 ± 0.048	3.2 ± 0.038	3.14 ± 0.039
GPNNFIWPAEDALRRGM [MED4]	3.35 ± 0.13	3.15 ± 0.11	3.03 ± 0.079	3.27 ± 0.08
KKCHRLLWTPKKLEITS [RPR2]	2.35 ± 0.045	2.48 ± 0.044	2.59 ± 0.038	2.34 ± 0.031
LEIDNKDSVTECSKDMK [SIR4]	3.46 ± 0.14	3.53 ± 0.083	3.4 ± 0.12	3.63 ± 0.066
YDPSIGIFGMDFYVVMN [RPL11A]	2.26 ± 0.05	2.24 ± 0.052	2.31 ± 0.055	2.55 ± 0.037
KMVIAELLPHYPFVTND [YJR042W/NUP85]	2.83 ± 0.09	2.75 ± 0.092	2.87 ± 0.052	2.99 ± 0.073
NIPFWKHVGFELLSMGN [SRP72]	1.82 ± 0.1	1.58 ± 0.085	2.01 ± 0.16	1.27 ± 0.079
KKNIDYQNRSTRSQFCL [RRI1]	3.01 ± 0.039	2.94 ± 0.04	2.88 ± 0.034	3.079 ± 0.026

Sequence	protein stability index (doa10∆)	protein stability index (pdr5∆)	protein stability index (san1∆)	protein stability index (ubr1∆)
TKYFEPTSTENNKKVVG [ECM29]	2.87 ± 0.14	3.19 ± 0.17	2.82 ± 0.13	2.97 ± 0.062
GYENGMLAQWDLRSPEC [RPN14]	3.15 ± 0.29	3.6 ± 0.2		3.65 ± 0.16
KIATRGVMLWKEFDETI [FAS1]	3.02 ± 0.22	2.94 ± 0.22		2.94 ± 0.15
LQCHISGTTNFMRNGLL [UBP6]	1.64 ± 0.1	1.66 ± 0.081	1.81 ± 0.15	2.31 ± 0.17
SSLRNQELLNAETLCFT [RPN3]	2.89 ± 0.11	3.02 ± 0.15	3.22 ± 0.065	3.11 ± 0.091
IFSYGPHIQKMLSILEI [POP6]	2.27 ± 0.12	1.93 ± 0.067	2.56 ± 0.15	2.24 ± 0.073
VEKLGKKMEARGQSIWV [RPN9]				1.51 ± 0.14
PFILEYDLMAPNGHIST [YMR129W/POM152]	2.94 ± 0.12	3 ± 0.17		3.05 ± 0.097
IISSNENALIELKNELA [YIL149C/MLP2]	2.53 ± 0.15	2.93 ± 0.077	2.71 ± 0.14	3.07 ± 0.12
TARVMGGLKNGVLYQGN [DIS3]	3.19 ± 0.069	3.3 ± 0.071	3.06 ± 0.047	3.13 ± 0.056
NTNNNNSTGHSSNTNNN [SWI1]	2.63 ± 0.049	2.29 ± 0.05	2.41 ± 0.058	1.93 ± 0.05
LIEKLQGFSKDTFELIK [YDL116W/NUP84]	3.21 ± 0.12	3.22 ± 0.093	3.29 ± 0.064	3.08 ± 0.07
NMEKEKDRIIDERTKEF [YIL149C/MLP2]	3.11 ± 0.078	2.93 ± 0.11	3.1 ± 0.074	3.16 ± 0.058
MGPLSNIAQMIPGMSNM [SRP54]	2.49 ± 0.049	2.75 ± 0.045	2.58 ± 0.048	2.69 ± 0.04
LICPQYGTENKDGEDII [CSL4]	3.23 ± 0.15	3.41 ± 0.13	3.12 ± 0.14	3.28 ± 0.13
FQIDNDNIRYATALQTC [SMC2]	1.8 ± 0.052	1.78 ± 0.047	1.45 ± 0.073	1.74 ± 0.052
SKSYTPRKLVLSSGENR [SMC4]	1.65 ± 0.03	1.82 ± 0.041	1.93 ± 0.056	1.7 ± 0.037
LSGIIQDIYYLAQTLKL [RRI2]	1.54 ± 0.081	1.66 ± 0.14	1.14 ± 0.092	1.04 ± 0.093
GEENRVRFIGDSVAAIG [QCR2]	3.3 ± 0.15	2.76 ± 0.18		3 ± 0.24
MDPGAPLPVETPRDRRK [SSN2]			3.25 ± 0.25	
SGQKTNRQVMHKMGVER [SIR3]	3.08 ± 0.21	3.75 ± 0.18	3.4 ± 0.25	3.27 ± 0.22
VKQVLLSVEIGVLTDIS [NUT1]	1.16 ± 0.063	1.47 ± 0.056	1.37 ± 0.18	1.64 ± 0.066
AAFEKRYRVDLLNTDHT [RPO21]	3.11 ± 0.076	3 ± 0.059	2.89 ± 0.058	2.88 ± 0.077
TFLVSNDDEVSQFCYVS [RPN14]	2 ± 0.13	2.55 ± 0.23	2.28 ± 0.13	
LDDFGEEELFEVTKEED [RRP43]	2.92 ± 0.11	2.54 ± 0.15	2.36 ± 0.12	
NEVKEWAVTLDTSRPDL [DSN1]	2.96 ± 0.11	3.15 ± 0.091	3.02 ± 0.052	3.15 ± 0.041

Sequence	protein stability index (doa10∆)	protein stability index (pdr5∆)	protein stability index (san1∆)	protein stability index (ubr1∆)
PFFKYIDDANVTRKQED [RPC37]	2.55 ± 0.091	2.12 ± 0.064	2.34 ± 0.083	2.52 ± 0.061
NENDLKTYNCLHEKYLT [SMC1]	2.2 ± 0.072	2.68 ± 0.053	2.11 ± 0.083	3.02 ± 0.056
EDGTFSVLYPDELEDDT [RRP43]	3.23 ± 0.086	3.1 ± 0.077	3.16 ± 0.061	3.11 ± 0.063
MGKGKPRGLNSARKLRV [RPS23A]	2.4 ± 0.089	3.05 ± 0.08	2.96 ± 0.094	2.79 ± 0.072
CRELHNKHLTTLVEIFL [SSN3]	1.59 ± 0.04	2.03 ± 0.045	1.82 ± 0.065	1.7 ± 0.04
TTNLDIDLLTFQYGSRL [RPP1]	3.29 ± 0.087	3.22 ± 0.073	3.06 ± 0.092	2.98 ± 0.055
SSFSKKTLTEEVTKSSH [YIL149C/MLP2]	2.69 ± 0.054	2.88 ± 0.058	2.77 ± 0.071	3.09 ± 0.048
RVTNTTSTDFPGFSKDA [RPC40]		3.04 ± 0.21		
IREINYTMSNHGMSVDP [RPO31]	2.87 ± 0.16	3.03 ± 0.2	3.03 ± 0.11	3.06 ± 0.13
KAKERLQALKANDEEAY [SNF2]	1.81 ± 0.14	2.51 ± 0.15	2.55 ± 0.067	1.77 ± 0.045
VKWQYDPNNPVDFDGLD [SNF12]	2.74 ± 0.062	3.02 ± 0.053	2.25 ± 0.07	2.87 ± 0.03
RTVKNILVSVLPGTEKG [CSL4]	1.65 ± 0.27			
WSTTGDNGELDLSGFNI [MED2]	3.18 ± 0.09	3.19 ± 0.12	3.34 ± 0.076	2.93 ± 0.097
ISENTFPNGFKNFENGP [RPC34]	2.96 ± 0.081	3.03 ± 0.069	2.91 ± 0.052	2.57 ± 0.034
LKDSKDFDESLKYLDDL [RPN9]	3.02 ± 0.21	3.21 ± 0.14		2.86 ± 0.17
FMDEIDSIGSTRVEGSG [RPT6]	2.57 ± 0.076	2.56 ± 0.12	2.84 ± 0.069	2.46 ± 0.073
STLQHFQETLDSTVVYP [MED8]	2.99 ± 0.068	3.11 ± 0.055	2.96 ± 0.055	3.17 ± 0.041
MQQAQFQAQQAQQAQQA [SNF2]	2.56 ± 0.043	2.86 ± 0.039	2.62 ± 0.032	2.53 ± 0.032
EEKEKEQSKEVGDVVGG [BRN1]	3.29 ± 0.091	3.52 ± 0.1	3.29 ± 0.067	3.34 ± 0.075
GEINKICMESLFLEPSW [PCI8]	1.84 ± 0.12	1.89 ± 0.083	2.03 ± 0.12	1.99 ± 0.063
AQAWINLGEYYAQIGDK [RPN7]	2.41 ± 0.11	2.77 ± 0.1	2.8 ± 0.11	2.76 ± 0.12
RVTGGMKVKADRDESSP [RPS14A]	3.31 ± 0.077	3.24 ± 0.063	3.28 ± 0.038	3.26 ± 0.05
PHANPITHAHSLSNPNS [PGD1]	2.87 ± 0.046	2.99 ± 0.045	2.77 ± 0.038	2.94 ± 0.03
DSSAHFKGALTIKILPE [YMR129W/POM152]	2.67 ± 0.076	2.62 ± 0.064	2.37 ± 0.058	2.49 ± 0.042
EPDRDENWIHVSCLSFM [LIN1]	3.12 ± 0.051	3.07 ± 0.042	3.08 ± 0.042	3.11 ± 0.036
IKTFLVDLTSSNFADSA [YDL116W/NUP84]	2.3 ± 0.089	2.82 ± 0.094	2.78 ± 0.1	2.76 ± 0.069
